# According to publication PMC3748285 (Cell reports, 2013):
# Legend:
# [1] = molecular target: LTag131-627 V350E/P417D (Simian virus 40); test: SEC + other: SDS-PAGE gel quantification
# [2] = molecular target: SV40 large T antigen LTag131-627 (Simian virus 40, UniProt P03070 131-627); test: X-ray crystallography
# SEC = molecular target: the molecule itself; test: SEC
# crystal structure = molecular target: the molecule itself; test: crystal structure
molecule,measurement,setting,value
LTag131-627 L286Dt/R567E (domain or fragment),stoichiometry N,[1],1 mut1:mut2
EP-half ori 32 bp (dsDNA) DNA 1: ACTACTTCTGGAATAGCTCAGAGGCCGAGGCG DNA 2: CGCCTCGGCCTCTGAGCTATTCCAGAAGTAGT,binding result,[2],binds
SV40 large tumor antigen LTag131-627 (wild type) (domain or fragment) KVEDPKDFPSELLSFLSHAVFSNRTLACFAIYTTKEKAALLYKKIMEKYSVTFISRHNSYNHNILFFLTPHRHRVSAINNYAQKLCTFSFLICKGVNKEYLMYSALTRDPFSVIEESLPGGLKEHDFNPEEAEETKQVSWKLVTEYAMETKCDDVLLLLGMYLEFQYSFEMCLKCIKKEQPSHYKYHEKHYANAAIFADSKNQKTICQQAVDTVLAKKRVDSLQLTREQMLTNRFNDLLDRMDIMFGSTGSADIEEWMAGVAWLHCLLPKMDSVVYDFLKCMVYNIPKKRYWLFKGPIDSGKTTLAAALLELCGGKALNVNLPLDRLNFELGVAIDQFLVVFEDVKGTGGESRDLPSGQGINNLDNLRDYLDGSVKVNLEKKHLNKRTQIFPPGIVTMNEYSVPKTLQARFVKQIDFRPKDYLKHCLERSEFLLEKRIIQSGIALLLMLIWYRPVAEFAQSIQSRIVEWKERLDKEFSLSVYQKMKFNVAMGIGVLD,stoichiometry N,SEC,6
same,stoichiometry N,crystal structure,2
